B1: 25C7A5-HZ1 (antibody, human IgG1, kappa)
heavy: not shown
light: EIVLTQSPATLSLSPGERATLSCKASENVKTYVSWYQQKPGQSPRLLIYEASNRYTGVPARFSGSGSATDFTLTISSLEPEDFAVYFCGQTYSFPPTFGQGTKVEIKRTVAAPSVFIFPPSDEQLKSGTASVVCLLNNFYPREAKVQWKVDNALQSGNSQESVTEQDSKDSTYSLSSTLTLSKADYEKHKVYACEVTHQGLSSPVTKSFNRGEC
notes: Humanized IgG1/kappa
B2: ADC formed by conjugation of 25C7A5-HZ1 (antibody, human IgG1, kappa)
heavy: not shown
light: B1 light
modifications: toxin linker conjugated to cysteine sulfhydryl groups after TCEP reduction (positions not given); toxin linker conjugated to cysteine sulfhydryl groups after TCEP reduction (positions not given); DAR 6.82 (B82 batch) or 7.97 (B81 batch)
notes: also called conjugated 25C7A5-HZ1; 25C7A5-HZ1-B82
B3: ADC formed by conjugation of 25C7A5-HZ2 (antibody, human IgG1, kappa)
heavy: not shown
light: B1 light
modifications: toxin linker conjugated to cysteine sulfhydryl groups after TCEP reduction (positions not given); toxin linker conjugated to cysteine sulfhydryl groups after TCEP reduction (positions not given); DAR 7.10
notes: The label B82 is not explained; also called conjugated 25C7A5-HZ2; 25C7A5-HZ2-B82

How the values were obtained:
human Claudin18.2 [1] = molecular target: T1, human Claudin18.2 (human, UniProt P56856-2 1-261); experiment: cell-based or functional assay
human Claudin18.2 [2] = molecular target: T1, human Claudin18.2; experiment: FACS on NUGC4-Claudin18.2 (human) cells
Method: (§1) The affinity of the anti-human Claudin18.2 humanized antibodies was detected by flow cytometry. The experimental procedures were as follows: The adherent cultured HEK293T-Claudin18.2 (human), NUGC4-Claudin18.2 (human) and NUGC4 cells were digested, collected by centrifugation, and washed three times with pre-cooled PBS. The cells were resuspended in 1% BSA (in PBS) and added to a 96-well pointed bottom plate at 3×10⁵ cells/well, with a volume of 50 μL per well. Each test antibody was diluted with 1% BSA (in PBS) (starting at 100 μg/mL, diluted in a 3-fold gradient, for 10 concentration points). The test antibody subjected to gradient dilution was added to the cells at 50 μL/well, and the mixture was well mixed and incubated at 4° C. for 1 h. The cells were collected by centrifugation, washed three times with pre-cooled PBS, and resuspended in 50 μL of 1% BSA (in PBS). 1 μL of a fluorescent secondary antibody (Biolegend-410712) was added to each well, and the mixture was well mixed and incubated at 4° C. for 0.5 h. The cells were collected by centrifugation, washed three times with pre-cooled PBS, resuspended in 200 μL of PBS, and assayed on a machine.

human Claudin18.2 [3] = molecular target: T1, human Claudin18.2; experiment: FACS on HEK293T-Claudin18.2 (human) cells
Method: as §1

mouse Claudin18.2 = molecular target: T2, mouse Claudin18.2 (mouse, UniProt P56857-3 1-264, limits assumed); experiment: FACS on HEK293T-Claudin18.2 (mouse) cells
T2 construct: whole, on cells; also called HEK293T-Claudin18.2 (mouse)
Method: The mixture was incubated at 4° C. for 0.5 h, and the cells were washed three times with pre-cooled PBS, then resuspended, and assayed on a flow cytometer.

human Claudin18.2 [4] = molecular target: T1, human Claudin18.2; experiment: cell-based ELISA on L929-Claudin18.2 (human) cells
human Claudin18.2 [5] = molecular target: T1, human Claudin18.2; experiment: cell-based ELISA on NUGC4-Claudin18.2 (human) cells
human Claudin18.2 [6] = molecular target: T1, human Claudin18.2; experiment: cell-based ELISA on HEK293T-Claudin18.2 (human) cells
Method: The affinity of the anti-human Claudin18.2 murine monoclonal antibodies was evaluated by cell-based ELISA. The experimental procedures were as follows: The day before the experiment, HEK293T-Claudin18.2 (human) cells were plated in a 96-well plate at 5×10⁴ cells/well. On the day of the experiment, the supernatant was removed, the cells in each well were washed once with 300 μL of PBS, and 100 μL of 4% paraformaldehyde was added to each well for fixation at room temperature for 20 min. Paraformaldehyde was then removed, and the cells in each well were washed twice with 300 μL of PBS. 100 μL of 2% BSA (in PBS) was added to each well, and the mixture was blocked at 37° C. for 2 h. After removing the blocking solution, each antibody subjected to gradient dilution (diluted with 2% BSA (in PBS), starting at […], in a 3-fold gradient, for a total of 11 concentration points) was added to the plate at 100 μL/well, and the mixture was incubated at 37° C. for 2 h. The supernatant was removed, and the cells in each well were washed three times with 300 μL of PBST. […] The reaction was stopped by adding 50 μL of 2 N HCl to each well, and OD_{450 nm} values were read on a microplate reader (manufacturer: MD, model: SpectraMax). […]
The affinity of the anti-human Claudin18.2 humanized monoclonal antibodies was determined by cell-based ELISA. […]

human Claudin18.1 = molecular target: T3, human Claudin18.1 (human, UniProt P56856 1-261); experiment: FACS on HEK293T-Claudin18.1 (human) cells, antibody 50 µg/mL
T3 construct: whole, on cells; also called CLDN18.1; HEK293T-Claudin18.1 (human)
Method: The specificity of the anti-human Claudin18.2 humanized monoclonal antibodies was determined by flow cytometry (FACS). The experimental procedures were as follows: HEK293T-Claudin18.1 (human) cells were digested, collected by centrifugation, washed three times with pre-cooled PBS, resuspended in 1% BSA (in PBS), and added to a 96-well pointed bottom plate at 3×10⁵ cells/well. Each test antibody with a final concentration of 50 μg/mL was added, and the mixture was incubated at 4° C. for 1 h. The cells were washed three times with pre-cooled PBS, and then 1 μL of a fluorescent secondary antibody (APC: Biolegend-410712 or PE: BioLegend-410708) was added to each well. The mixture was incubated at 4° C. for 0.5 h, and the cells were washed three times with pre-cooled PBS, then resuspended, and assayed on a flow cytometer. For reference, anti-human Claudin18.1 positive control antibodies (positive control antibody-1 and positive control antibody-2) were included in the experiment.

human Claudin18.2 [7] = molecular target: T1, human Claudin18.2; experiment: cell-based ELISA on NUGC4 cells (endogenous human Claudin18.2)
human Claudin18.2 [8] = molecular target: T1, human Claudin18.2; experiment: cell-based ELISA (OD450) on NUGC4 cells (endogenous human Claudin18.2)
human Claudin18.2 [9] = molecular target: T1, human Claudin18.2; experiment: cell-based ELISA on L929-claudin 18.2 (human) and NUGC4 cells, ADC

T2 sequence (P56857 other isoform, or with tags, fused parts or gaps limits assumed): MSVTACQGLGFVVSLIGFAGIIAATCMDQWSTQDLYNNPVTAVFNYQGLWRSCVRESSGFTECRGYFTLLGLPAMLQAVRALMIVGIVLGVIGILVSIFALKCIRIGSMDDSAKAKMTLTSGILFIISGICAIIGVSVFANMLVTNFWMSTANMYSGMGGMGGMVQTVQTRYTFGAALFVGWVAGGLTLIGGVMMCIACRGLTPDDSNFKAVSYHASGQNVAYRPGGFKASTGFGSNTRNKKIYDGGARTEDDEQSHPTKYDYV

Binder | ADCC activity EC50 (Jurkat-NFAT-CD16a luciferase reporter, HEK293T-Claudin18.2 (human) target cells) (human Claudin18.2 [1]) [µg/mL] | CDC activity EC50 (guinea pig serum killing, CCK8, HEK293T-Claudin18.2 (human) cells) (human Claudin18.2 [1]) [µg/mL] | EC50 (human Claudin18.2 [2]) [µg/mL] | EC50 (human Claudin18.2 [3]) [µg/mL] | Maximum signal value (human Claudin18.2 [3]) | EC50 (mouse Claudin18.2) [µg/mL] | EC50 (human Claudin18.2 [4]) [µg/mL] | EC50 (human Claudin18.2 [5]) [µg/mL] | EC50 (human Claudin18.2 [6]) [µg/mL] | Positive rate (%) (human Claudin18.1) | EC50 (human Claudin18.2 [7]) [µg/mL] | Maximum signal value (human Claudin18.2 [8]) | binding result (human Claudin18.2 [9])
B1 | 0.0465 | 3.14 | 3.19 | 0.292 | 114000 | 0.941 | 0.0134 | 0.108 | 0.0112 | 0.54 | 0.101 | 0.304 | –
B2 | – | – | – | – | – | – | – | – | – | – | – | – | binds
B3 | – | – | – | – | – | – | – | – | – | – | – | – | binds

From patent US20260201030A1 (EVOPOINT BIOSCIENCES, published 2026)
